The target in data set [1] is T1, beta-catenin.
T1 chain: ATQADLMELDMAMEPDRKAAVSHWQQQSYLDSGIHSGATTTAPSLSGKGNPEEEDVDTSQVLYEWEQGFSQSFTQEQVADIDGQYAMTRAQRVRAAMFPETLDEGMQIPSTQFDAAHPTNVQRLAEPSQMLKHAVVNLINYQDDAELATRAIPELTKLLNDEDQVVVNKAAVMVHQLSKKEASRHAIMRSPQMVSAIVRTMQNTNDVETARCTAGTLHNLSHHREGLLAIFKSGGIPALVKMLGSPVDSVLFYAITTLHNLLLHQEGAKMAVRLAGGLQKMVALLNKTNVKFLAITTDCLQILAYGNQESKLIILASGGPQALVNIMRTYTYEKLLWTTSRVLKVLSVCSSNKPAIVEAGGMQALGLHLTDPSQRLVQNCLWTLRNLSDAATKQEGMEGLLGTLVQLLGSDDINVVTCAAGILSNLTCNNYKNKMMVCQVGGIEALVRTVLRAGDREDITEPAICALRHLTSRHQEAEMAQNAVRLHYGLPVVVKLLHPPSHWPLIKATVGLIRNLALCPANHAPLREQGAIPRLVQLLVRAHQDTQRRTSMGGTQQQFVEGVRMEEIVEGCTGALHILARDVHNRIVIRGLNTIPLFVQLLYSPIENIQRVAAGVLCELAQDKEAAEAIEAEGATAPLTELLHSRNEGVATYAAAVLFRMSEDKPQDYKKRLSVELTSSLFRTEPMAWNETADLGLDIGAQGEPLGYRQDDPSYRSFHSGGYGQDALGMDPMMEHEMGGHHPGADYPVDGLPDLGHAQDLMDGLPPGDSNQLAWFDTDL

The target of data set [2] is T2, 3×FLAG-WHSC1 (Wolf-Hirschhorn syndrome candidate-1, FLAG-tagged) (human, UniProt O96028 1-1365).
T2 construct: Expressed in 293T cells by transfection; also called FLAG-tagged WHSC1; pCAGGS-n3FH-WHSC1; not shown: 3×FLAG tag from the pCAGGS-n3FH / n3FC vector
T2 sequence: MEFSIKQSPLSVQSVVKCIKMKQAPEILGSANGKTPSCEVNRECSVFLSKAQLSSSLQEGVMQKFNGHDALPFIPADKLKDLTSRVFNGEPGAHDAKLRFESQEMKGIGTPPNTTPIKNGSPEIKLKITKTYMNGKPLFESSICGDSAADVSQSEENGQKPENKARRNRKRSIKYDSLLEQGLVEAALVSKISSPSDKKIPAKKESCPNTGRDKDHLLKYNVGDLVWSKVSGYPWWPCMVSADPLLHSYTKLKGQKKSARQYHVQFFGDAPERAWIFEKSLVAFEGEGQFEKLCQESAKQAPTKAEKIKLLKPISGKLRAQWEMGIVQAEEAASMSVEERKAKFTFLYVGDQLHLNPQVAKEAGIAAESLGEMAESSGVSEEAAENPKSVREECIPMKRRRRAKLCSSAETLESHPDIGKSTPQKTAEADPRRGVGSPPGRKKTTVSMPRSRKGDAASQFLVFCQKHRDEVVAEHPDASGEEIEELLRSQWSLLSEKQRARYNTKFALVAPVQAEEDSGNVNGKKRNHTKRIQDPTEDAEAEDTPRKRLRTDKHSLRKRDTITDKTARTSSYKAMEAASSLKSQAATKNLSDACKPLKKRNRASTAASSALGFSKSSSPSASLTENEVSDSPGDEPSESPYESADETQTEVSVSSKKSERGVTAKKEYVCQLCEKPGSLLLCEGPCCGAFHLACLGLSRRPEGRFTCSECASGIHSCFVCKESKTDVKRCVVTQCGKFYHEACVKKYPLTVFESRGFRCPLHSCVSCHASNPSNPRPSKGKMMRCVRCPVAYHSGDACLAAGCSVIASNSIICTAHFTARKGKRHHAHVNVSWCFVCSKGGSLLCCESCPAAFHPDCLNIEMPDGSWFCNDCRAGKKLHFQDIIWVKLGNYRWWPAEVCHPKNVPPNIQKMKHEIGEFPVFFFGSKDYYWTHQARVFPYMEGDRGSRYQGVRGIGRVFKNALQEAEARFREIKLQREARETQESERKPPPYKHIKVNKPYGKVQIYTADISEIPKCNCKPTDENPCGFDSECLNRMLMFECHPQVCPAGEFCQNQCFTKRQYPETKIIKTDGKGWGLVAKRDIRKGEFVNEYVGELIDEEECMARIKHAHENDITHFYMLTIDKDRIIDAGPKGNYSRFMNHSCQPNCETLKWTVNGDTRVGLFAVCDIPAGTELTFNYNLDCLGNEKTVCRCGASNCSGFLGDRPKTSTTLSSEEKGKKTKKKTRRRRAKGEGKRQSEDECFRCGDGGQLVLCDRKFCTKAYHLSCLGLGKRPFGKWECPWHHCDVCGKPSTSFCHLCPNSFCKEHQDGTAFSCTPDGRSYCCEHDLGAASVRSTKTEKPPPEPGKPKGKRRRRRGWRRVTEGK
Briefly: anti-HA immunoprecipitation from nuclear and cytoplasmic fractions of 293T cells co-transfected with HA-beta-catenin and 3×FLAG-WHSC1, then immunoblot. As for the experimental part: [FIG. 5B-D](B) Silver staining pattern of interacting proteins with WHSC1. pCAGGS-n3FH-WHSC1 vectors were transfected into 293T cells. After 48 h, interacting protein partners of WHSC1 were enriched by anti-FLAG immunoprecipitation, separated by SDS-PAGE and silver stained. The different bands compared with a control lane were cut out and identified by mass spectrometry. Western blot was performed to confirm the expression of FLAG-WHSC1 using anti-FLAG antibody. (C) Immunoprecipitants from lysates of 293T cells using anti-FLAG M2 agarose (SIGMA) were immunoblotted with anti-FLAG (WHSC1), IQGAP1, TIAM1, AKT2 and beta-catenin antibodies. (D). HA-beta-catenin and 3×FLAG-WHSC1 vectores were transfected into 293T cells, and cell lysates were fractionated by NE-PER nuclear and cytoplasmic ex-traction kit (Thermo Sciecntific). Immunoprecipitants from fractionated lysates using anti-HA agarose (SIGMA) were immunoblotted with anti-FLAG and HA antibodies. UHRF1 was used as a marker of a nuclear protein, and Rho A was used a marker of a cytoplasmic protein.

B1: WHSC1 (expressed from the pCAGGS-WHSC1 vector) (protein)
chain: T2 sequence
Consider B1, for which, in data set [1], the “in vitro methyltransferase assay” value is recorded as “no positive signals were observed (data not shown)”.

B2: HA-beta-catenin (other)
chain: MATQADLMELDMAMEPDRKAAVSHWQQQSYLDSGIHSGATTTAPSLSGKGNPEEEDVDTSQVLYEWEQGFSQSFTQEQVADIDGQYAMTRAQRVRAAMFPETLDEGMQIPSTQFDAAHPTNVQRLAEPSQMLKHAVVNLINYQDDAELATRAIPELTKLLNDEDQVVVNKAAVMVHQLSKKEASRHAIMRSPQMVSAIVRTMQNTNDVETARCTAGTLHNLSHHREGLLAIFKSGGIPALVKMLGSPVDSVLFYAITTLHNLLLHQEGAKMAVRLAGGLQKMVALLNKTNVKFLAITTDCLQILAYGNQESKLIILASGGPQALVNIMRTYTYEKLLWTTSRVLKVLSVCSSNKPAIVEAGGMQALGLHLTDPSQRLVQNCLWTLRNLSDAATKQEGMEGLLGTLVQLLGSDDINVVTCAAGILSNLTCNNYKNKMMVCQVGGIEALVRTVLRAGDREDITEPAICALRHLTSRHQEAEMAQNAVRLHYGLPVVVKLLHPPSHWPLIKATVGLIRNLALCPANHAPLREQGAIPRLVQLLVRAHQDTQRRTSMGGTQQQFVEGVRMEEIVEGCTGALHILARDVHNRIVIRGLNTIPLFVQLLYSPIENIQRVAAGVLCELAQDKEAAEAIEAEGATAPLTELLHSRNEGVATYAAAVLFRMSEDKPQDYKKRLSVELTSSLFRTEPMAWNETADLGLDIGAQGEPLGYRQDDPSYRSFHSGGYGQDALGMDPMMEHEMGGHHPGADYPVDGLPDLGHAQDLMDGLPPGDSNQLAWFDTDL
notes: Co-transfected with 3×FLAG-WHSC1 into 293T cells and precipitated with anti-HA agarose from nuclear and cytoplasmic fractions; also called HA-tagged beta-catenin; not shown: HA tag
Consider B2, for which the binding result in data set [2] is on record as “binds”.

The values above are taken from patent publication US20130137748A1 (ONCOTHERAPY SCIENCE, published 2013).
